Laboratory results: article PMC3477016, “The intrinsic GTPase activity of the Gtr1 protein from Saccharomyces cerevisiae” (BMC Biochemistry, 2012)

Substrate: Nc1nc2c(ncn2[C@@H]2O[C@H](COP(=O)(O)OP(=O)(O)OP(=O)(O)O)[C@@H](O)[C@H]2O)c(=O)[nH]1
Assay: radioactive GTPase assay, thin-layer chromatography, Lineweaver-Burk
Assay type: biochemical, Saccharomyces cerevisiae
Conditions: pH 7.4, 37 °C, 5 mM MgCl2, 5 mM KCl, 25 mM HEPES, 100 mM sucrose, 60 min, labelled compound [α-32P]GTP 0.1-1.2 μM, no GAP, GEF or Gtr2

B1: Gtr1 (Saccharomyces cerevisiae S288C) (protein)
chain: MSSNNRKKLLLMGRSGSGKSSMRSIIFSNYSAFDTRRLGATIDVEHSHLRFLGNMTLNLWDCGGQDVFMENYFTKQKDHIFQMVQVLIHVFDVESTEVLKDIEIFAKALKQLRKYSPDAKIFVLLHKMDLVQLDKREELFQIMMKNLSETSSEFGFPNLIGFPTSIWDESLYKAWSQIVCSLIPNMSNHQSNLKKFKEIMNALEIILFERTTFLVICSSNGENSNENHDSSDNNNVLLDPKRFEKISNIMKNFKQSCTKLKSGFKTLILNNNIYVSELSSNMVCFIVLKDMNIPQELVLENIKKAKEFFQ
notes: full-length, N-terminal His6 tag (pET28a+ named in acknowledgements), expressed in E. coli, Ni-NTA purified, 36 kDa, monomer (without Gtr2); printed PDB id is of the Gtr1-Gtr2 complex of others
  Km: 1.0 µM
  kcat: 0.004 min⁻¹
